Source: IntAct's records for PubMed 31515488

B1: Tuftelin-interacting protein 11 (Homo sapiens), Q9UBB9 (parent)
chain: MSLSHLYRDGEGRIDDDDDERENFEITDWDLQNEFNPNRQRHWQTKEEATYGVWAERDSDDERPSFGGKRARDYSAPVNFISAGLKKGAAEEAELEDSDDEEKPVKQDDFPKDFGPRKLKTGGNFKPSQKGFAGGTKSFMDFGSWERHTKGIGQKLLQKMGYVPGRGLGKNAQGIINPIEAKQRKGKGAVGAYGSERTTQSMQDFPVVDSEEEAEEEFQKELSQWRKDPSGSKKKPKYSYKTVEELKAKGRISKKLTAPQKELSQVKVIDMTGREQKVYYSYSQISHKHNVPDDGLPLQSQQLPQSGKEAKAPGFALPELEHNLQLLIDLTEQEIIQNDRQLQYERDMVVNLFHELEKMTEVLDHEERVISNLSKVLEMVEECERRMQPDCSNPLTLDECARIFETLQDKYYEEYRMSDRVDLAVAIVYPLMKEYFKEWDPLKDCTYGTEIISKWKSLLENDQLLSHGGQDLSADAFHRLIWEVWMPFVRNIVTQWQPRNCDPMVDFLDSWVHIIPVWILDNILDQLIFPKLQKEVENWNPLTDTVPIHSWIHPWLPLMQARLEPLYSPIRSKLSSALQKWHPSDSSAKLILQPWKDVFTPGSWEAFMVKNIVPKLGMCLGELVINPHQQHMDAFYWVIDWEGMISVSSLVGLLEKHFFPKWLQVLCSWLSNSPNYEEITKWYLGWKSMFSDQVLAHPSVKDKFNEALDIMNRAVSSNVGAYMQPGARENIAYLTHTERRKDFQYEAMQERREAENMAQRGIGVAASSVPMNFKDLIETKAEEHNIVFMPVIGKRHEGKQLYTFGRIVIYIDRGVVFVQGEKTWVPTSLQSLIDMAK
partner: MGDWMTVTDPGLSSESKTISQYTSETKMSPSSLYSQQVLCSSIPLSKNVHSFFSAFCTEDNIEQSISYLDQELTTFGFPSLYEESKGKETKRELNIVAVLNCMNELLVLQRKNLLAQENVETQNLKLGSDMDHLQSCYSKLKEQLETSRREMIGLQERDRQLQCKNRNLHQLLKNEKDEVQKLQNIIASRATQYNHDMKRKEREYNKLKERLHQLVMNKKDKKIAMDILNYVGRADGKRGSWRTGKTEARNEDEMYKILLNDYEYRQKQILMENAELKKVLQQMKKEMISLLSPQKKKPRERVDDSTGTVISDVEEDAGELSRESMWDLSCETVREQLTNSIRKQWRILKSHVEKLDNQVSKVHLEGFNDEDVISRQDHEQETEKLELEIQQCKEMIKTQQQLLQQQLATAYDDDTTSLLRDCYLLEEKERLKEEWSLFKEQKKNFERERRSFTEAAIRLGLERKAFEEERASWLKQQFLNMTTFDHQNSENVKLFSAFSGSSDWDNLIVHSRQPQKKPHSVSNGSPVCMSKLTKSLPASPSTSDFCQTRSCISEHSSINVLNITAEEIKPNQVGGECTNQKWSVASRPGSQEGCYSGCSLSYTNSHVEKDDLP
B2: Zyxin (Homo sapiens), Q15942 (parent)
chain: MAAPRPSPAISVSVSAPAFYAPQKKFGPVVAPKPKVNPFRPGDSEPPPAPGAQRAQMGRVGEIPPPPPEDFPLPPPPLAGDGDDAEGALGGAFPPPPPPIEESFPPAPLEEEIFPSPPPPPEEEGGPEAPIPPPPQPREKVSSIDLEIDSLSSLLDDMTKNDPFKARVSSGYVPPPVATPFSSKSSTKPAAGGTAPLPPWKSPSSSQPLPQVPAPAQSQTQFHVQPQPQPKPQVQLHVQSQTQPVSLANTQPRGPPASSPAPAPKFSPVTPKFTPVASKFSPGAPGGSGSQPNQKLGHPEALSAGTGSPQPPSFTYAQQREKPRVQEKQHPVPPPAQNQNQVRSPGAPGPLTLKEVEELEQLTQQLMQDMEHPQRQNVAVNELCGRCHQPLARAQPAVRALGQLFHIACFTCHQCAQQLQGQQFYSLEGAPYCEGCYTDTLEKCNTCGEPITDRMLRATGKAYHPHCFTCVVCARPLEGTSFIVDQANRPHCVPDYHKQYAPRCSVCSEPIMPEPGRDETVRVVALDKNFHMKCYKCEDCGKPLSIEADDNGCFPLDGHVLCRKCHTARAQT
B3: Fructose-1,6-bisphosphatase 1 (Homo sapiens), P09467 (parent)
chain: MADQAPFDTDVNTLTRFVMEEGRKARGTGELTQLLNSLCTAVKAISSAVRKAGIAHLYGIAGSTNVTGDQVKKLDVLSNDLVMNMLKSSFATCVLVSEEDKHAIIVEPEKRGKYVVCFDPLDGSSNIDCLVSVGTIFGIYRKKSTDEPSEKDALQPGRNLVAAGYALYGSATMLVLAMDCGVNCFMLDPAIGEFILVDKDVKIKKKGKIYSLNEGYARDFDPAVTEYIQRKKFPPDNSAPYGARYVGSMVADVHRTLVYGGIFLYPANKKSPNGKLRLLYECNPMAYVMEKAGGMATTGKEAVLDVIPTDIHQRAPVILGSPDDVLEFLKVYEKHSAQ
partner: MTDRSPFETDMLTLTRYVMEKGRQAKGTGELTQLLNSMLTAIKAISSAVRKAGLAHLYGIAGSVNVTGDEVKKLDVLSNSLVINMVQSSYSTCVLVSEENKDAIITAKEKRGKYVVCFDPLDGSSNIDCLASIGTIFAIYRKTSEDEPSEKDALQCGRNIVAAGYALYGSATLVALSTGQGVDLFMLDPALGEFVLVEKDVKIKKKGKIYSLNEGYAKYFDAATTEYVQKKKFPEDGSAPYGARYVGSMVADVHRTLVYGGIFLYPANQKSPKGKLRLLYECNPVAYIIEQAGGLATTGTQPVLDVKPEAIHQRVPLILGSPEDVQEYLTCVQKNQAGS
B4: Coiled-coil domain-containing protein 185 (Homo sapiens), Q8N715 (parent)
chain: MAGFSHFSQPPYRDLWEPPRPGGERESTQRLGGQRSGADSTACSRAGTPGAESEAGACWLHPHCSFTPRPRRRGCSDSLRGSRSLSDVARRPLERSRKHRPRSRRLEDAWGETGTKPRPAWQPQTQLPPQRPQPCPHYPLAQGDSPPPCPGGAGTPLSGTFRVEKAQGGDQWAVPLGRHLGRWSPSSVPSERSSVPSQKFKRHSACVCAQKRDSSDQVESLASRDSQPLASSKEMRSPHTQVLKSKLEEVVVSSQDQQIVALVLTRLKKAQRIRELQQQAAKAWEELKRSDQKVQMTLERERRLLLRQSQEQWQEKEQRKTLQSPEQRGLRRDSQRKNVPPGESRWKEQPEDQESPRQEKLEKARAQAEHRKQCQVRRLREQEKMLRNLREQHSLQLQRRLVEACRKRHLHAVEGQKKVQDTNLSSLINYQARKVLMDCQAKAEELLRQLSLEQSFQRSQEIHQGLRKERQRELREKAQKEEEQLQQARWRAGESEEQRKMRKRILVELADEKIRQARSHVHKTTRDKVQHLRELNHLREKNHHILKLKAEKEEKCHIEGIKEAIKKKEQRVQHISQGKDPNFQEFQKLPQASRREERAPPNSSLDQMVLEAQLRACQQNRGY
partner: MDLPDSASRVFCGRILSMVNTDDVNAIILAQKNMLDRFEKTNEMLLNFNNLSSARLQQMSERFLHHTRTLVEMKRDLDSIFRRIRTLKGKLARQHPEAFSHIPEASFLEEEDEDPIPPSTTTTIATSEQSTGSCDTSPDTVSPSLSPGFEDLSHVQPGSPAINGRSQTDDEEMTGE
B5: Progranulin (Homo sapiens), P28799 (parent)
chain: MWTLVSWVALTAGLVAGTRCPDGQFCPVACCLDPGGASYSCCRPLLDKWPTTLSRHLGGPCQVDAHCSAGHSCIFTVSGTSSCCPFPEAVACGDGHHCCPRGFHCSADGRSCFQRSGNNSVGAIQCPDSQFECPDFSTCCVMVDGSWGCCPMPQASCCEDRVHCCPHGAFCDLVHTRCITPTGTHPLAKKLPAQRTNRAVALSSSVMCPDARSRCPDGSTCCELPSGKYGCCPMPNATCCSDHLHCCPQDTVCDLIQSKCLSKENATTDLLTKLPAHTVGDVKCDMEVSCPDGYTCCRLQSGAWGCCPFTQAVCCEDHIHCCPAGFTCDTQKGTCEQGPHQVPWMEKAPAHLSLPDPQALKRDVPCDNVSSCPSSDTCCQLTSGEWGCCPIPEAVCCSDHQHCCPQGYTCVAEGQCQRGSEIVAGLEKMPARRASLSHPRDIGCDQHTSCPVGQTCCPSLGGSWACCQLPHAVCCEDRQHCCPAGYTCNVKARSCEKEVVSAQPATFLARSPHVGVKDVECGEGHFCHDNQTCCRDNRQGWACCPYRQGVCCADRRHCCPAGFRCAARGTKCLRREAPRWDAPLRDPALRQLL
partner: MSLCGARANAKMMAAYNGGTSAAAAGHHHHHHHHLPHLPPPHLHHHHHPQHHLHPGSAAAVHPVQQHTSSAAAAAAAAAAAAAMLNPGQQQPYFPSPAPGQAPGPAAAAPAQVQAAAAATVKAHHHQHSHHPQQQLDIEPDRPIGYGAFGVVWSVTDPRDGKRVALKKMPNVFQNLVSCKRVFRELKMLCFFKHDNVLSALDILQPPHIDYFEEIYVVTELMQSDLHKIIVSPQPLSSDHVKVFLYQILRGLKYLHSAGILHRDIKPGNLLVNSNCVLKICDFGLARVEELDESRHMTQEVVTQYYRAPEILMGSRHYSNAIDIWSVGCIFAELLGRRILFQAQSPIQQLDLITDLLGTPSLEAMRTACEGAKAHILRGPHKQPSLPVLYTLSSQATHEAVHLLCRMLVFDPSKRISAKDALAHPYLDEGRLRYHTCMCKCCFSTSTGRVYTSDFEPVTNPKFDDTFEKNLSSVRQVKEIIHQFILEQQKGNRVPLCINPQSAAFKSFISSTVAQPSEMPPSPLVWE
B6: Protein FAM200C (Homo sapiens), Q8IZ13 (parent)
chain: MSKKRKWDDDYVRYWFTCTTEVDGTQRPQCVLCNSVFSNADLRPSKLSDHFNRQHGGVAGHDLNSLKHMPAPSDQSETLKAFGVASHEDTLLQASYQFAYLCAKEKNPHTVAEKLVKPCALEIAQIVLGPDAQKKLQQVPLSDDVIHSRIDEMSQDILQQVLEDIKASPLKVGIQLAETTDMDDCSQLMAFVRYIKEREIVEEFLFCEPLQLSMKGIDVFNLFRDFFLKHKIALDVCGSVCTDGASSMLGENSEFVAYVKKEIPHIVVTHCLLNPHALVIKTLPTKLRDALFTVVRVINFIKGRAPNHRLFQAFFEEIGIEYSVLLFHTEMRWLSRGQILTHIFEMYEEINQFLHHKSSNLVDGFENKEFKIHLAYLADLFKHLNELSASMQRTGMNTVSAREKLSAFVRKFPFWQKRIEKRNFTNFPFLEEIIVSDNEGIFIAAEITLHLQQLSNFFHGYFSIGDLNEASKWILDPFLFNIDFVDDSYLMKNDLAELRASGQILMEFETMKLEDFWCAQFTAFPNLAKTALEILMPFATTYLCELGFSSLLHFKTKSRSCFNLSDDIRVAISKKVPRFSDIIEQKLQLQQKSL
partner: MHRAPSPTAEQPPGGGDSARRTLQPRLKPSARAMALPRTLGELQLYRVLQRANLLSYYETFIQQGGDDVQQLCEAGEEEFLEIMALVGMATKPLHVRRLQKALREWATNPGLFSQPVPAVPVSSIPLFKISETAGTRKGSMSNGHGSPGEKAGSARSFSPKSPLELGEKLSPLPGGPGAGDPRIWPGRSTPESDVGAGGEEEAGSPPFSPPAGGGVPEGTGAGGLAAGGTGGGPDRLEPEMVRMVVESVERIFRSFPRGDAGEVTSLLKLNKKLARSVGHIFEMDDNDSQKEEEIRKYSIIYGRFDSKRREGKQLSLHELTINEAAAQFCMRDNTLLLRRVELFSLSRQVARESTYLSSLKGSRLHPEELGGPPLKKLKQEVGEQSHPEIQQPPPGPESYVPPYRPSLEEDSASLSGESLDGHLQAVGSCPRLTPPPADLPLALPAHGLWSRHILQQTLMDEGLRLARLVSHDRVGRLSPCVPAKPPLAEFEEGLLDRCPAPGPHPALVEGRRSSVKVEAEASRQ
B7: UPF0688 protein C1orf174 (Homo sapiens), Q8IYL3 (parent)
chain: MRSRKLTGAVRSSARLKARSCSAARLASAQEVAGSTSAKTACLTSSSHKATDTRTSKKFKCDKGHLVKSELQKLVPKNDSASLPKVTPETPCENEFAEGSALLPGSEAGVSVQQGAASLPLGGCRVVSDSRLAKTRDGLSVPKHSAGSGAEESNSSSTVQKQNEPGLQTEDVQKPPLQMDNSVFLDDDSNQPMPVSRFFGNVELMQDLPPASSSCPSMSRREFRKMHFRAKDDDDDDDDDAEM

Variants of: B1
Details: with adip_human SSX2IP

effect of a mutation on the interaction	Variant
with no effect	S688L
with no effect	R8Q

Variants of: B2
Details: with pf21a_human PHF21A

effect of a mutation on the interaction	Variant
with no effect	R489W
with no effect	R563Q

Variants of: B3
Details: with FBP2, O00757

effect of a mutation on the interaction	Variant
disrupting interaction strength	G260R

Variants of: B4
Details: with kxdl1_human KXD1, Q9BQD3

effect of a mutation on the interaction	Variant
with no effect	S603G

Variants of: B5
Details: with nlk_human NLK

effect of a mutation on the interaction	Variant
with no effect	R19W

Variants of: B6
Details: with nab2_human NAB2, Q15742

effect of a mutation on the interaction	Variant
with no effect	M248K
with no effect	A523S

Variants of: B7
Details: with ikzf1_human IKZF1, Q13422
ikzf1_human IKZF1, Q13422, sequence (Q13422 whole entry): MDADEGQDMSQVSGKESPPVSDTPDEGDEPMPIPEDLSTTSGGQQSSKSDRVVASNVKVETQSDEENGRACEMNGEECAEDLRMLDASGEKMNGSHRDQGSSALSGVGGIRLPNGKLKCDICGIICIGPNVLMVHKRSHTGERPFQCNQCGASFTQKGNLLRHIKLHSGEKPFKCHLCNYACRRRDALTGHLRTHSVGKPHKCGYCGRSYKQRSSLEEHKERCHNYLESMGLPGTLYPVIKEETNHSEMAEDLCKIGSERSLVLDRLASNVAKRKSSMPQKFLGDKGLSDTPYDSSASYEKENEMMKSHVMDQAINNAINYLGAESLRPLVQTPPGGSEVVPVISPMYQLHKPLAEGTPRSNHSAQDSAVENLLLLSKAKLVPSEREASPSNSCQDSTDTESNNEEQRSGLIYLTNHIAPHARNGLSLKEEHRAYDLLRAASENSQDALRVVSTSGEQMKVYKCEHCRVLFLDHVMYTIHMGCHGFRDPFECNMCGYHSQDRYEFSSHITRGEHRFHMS

effect of a mutation on the interaction	Variant
with no effect	V195M
with no effect	S82A
